Sequences and labels used below:
T1: His-HSP20 (purified recombinant His-tagged HSP20) (human, UniProt O14558 1-160)
T1 construct: Expressed in E. coli BL21 from pET28c and purified on nickel; also called HSP20-His; HSP20-6His; not shown: His tag from the pET28c vector
T1 sequence: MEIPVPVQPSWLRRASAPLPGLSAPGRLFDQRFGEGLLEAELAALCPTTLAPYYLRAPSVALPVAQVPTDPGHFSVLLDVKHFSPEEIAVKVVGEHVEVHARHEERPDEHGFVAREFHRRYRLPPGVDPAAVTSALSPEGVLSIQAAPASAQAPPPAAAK

B1: 25mer peptide 93 of the PDE4D5 peptide array (peptide)
peptide: YNDSSVLENHHLAVGFKLLQEENCD
notes: peptides 93 to 96 span Y461-K500; SPOT-immobilised; also called spot 93
B2: 25mer peptide 96 of the PDE4D5 peptide array (peptide)
peptide: FKLLQEENCDIFQNLTKKQRQSLRK
notes: peptides 93 to 96 span Y461-K500; SPOT-immobilised; also called spot 96
B3: 25mer peptide 95 of the PDE4D5 peptide array (peptide)
peptide: HLAVGFKLLQEENCDIFQNLTKKQR
notes: peptides 93 to 96 span Y461-K500; SPOT-immobilised; also called spot 95
B4: 25mer peptide 94 of the PDE4D5 peptide array (peptide)
peptide: VLENHHLAVGFKLLQEENCDIFQNL
notes: peptides 93 to 96 span Y461-K500; SPOT-immobilised; also called spot 94
B5: Ac-GFKLL-NH2 (peptide)
peptide: Ac-GFKLL-NH2
notes: On the array SPOT-synthesised on a slide; also called peptide No 11
B6: Ac-RFKLL-NH2 (peptide)
peptide: Ac-RFKLL-NH2
notes: On the array SPOT-synthesised on a slide; also called peptide No 14
B7: Ac-GFRLL-NH2 (peptide)
peptide: Ac-GFRLL-NH2
notes: On the array SPOT-synthesised on a slide; also called peptide No 12
B8: Ac-KFKLL-NH2 (peptide)
peptide: Ac-KFKLL-NH2
notes: On the array SPOT-synthesised on a slide; also called peptide No 13
B9: Ac-GFALL-NH2 (peptide)
peptide: Ac-GFALL-NH2
notes: Negative control; On the array SPOT-synthesised on a slide; also called peptide No 16
B10: Ac-FKLLQ-NH2 (peptide)
peptide: Ac-FKLLQ-NH2
notes: On the array SPOT-synthesised on a slide; also called peptide No 9
B11: Ac-FQNLTK-NH2 (peptide)
peptide: Ac-FQNLTK-NH2
notes: On the array SPOT-synthesised on a slide; also called peptide No 6
B12: Ac-FQNLTR-NH2 (peptide)
peptide: Ac-FQNLTR-NH2
notes: On the array SPOT-synthesised on a slide; also called peptide No 5
B13: Ac-YQNLTK-NH2 (peptide)
peptide: Ac-YQNLTK-NH2
notes: On the array the peptide was SPOT-synthesised on a slide; the soluble form Ac-...-NH2 was made 'to resemble SPOT synthesised peptides'; also called peptide No 3
B14: Ac-FQNLTA-NH2 (peptide)
peptide: Ac-FQNLTA-NH2
notes: Negative control; On the array SPOT-synthesised on a slide; also called peptide No 4

The first test deals with T1, His-HSP20 (purified recombinant …). The experiment in a line: PDE4D5 peptide array overlaid with HSP20-6His.
Conditions: not given
The text has this:
PDE4 isoform localisation invariably depends on protein-protein interactions, with PDE4s shown to associate with a diverse group of interacting partners such as RACK1^{32, 36}, βarrestin³⁶, β₁-Ar³⁷, DISC1³⁸, the p75 neurotrophin receptor³⁹ and the cardiac IKs potassium channel⁴⁰. […] Dark spots represent positive areas of HSP20 interaction whereas clear spots are negative for the association (FIG. 4A).
On to B1, for which the binding result is on record as “binds”.

With B2, the binding result was “binds”.

Regarding B3, the binding result is given as “binds”.

Turning to B4, the binding result is given as “binds”.

For another test, the system named is Phospho-Ser16 HSP20 in HEKB2 cells. The experiment in a line: Ser16 phosphorylation of HSP20 in HEKB2 cells overexpressing HSP20 (Western blot). The test is classed as cell-based. The note with it: HEKB2 cells, stimulated with isoproterenol alone; data not shown. The method, then:
FIG. 1. The phosphorylation of HSP20 at Ser16 is modulated by PDE4 activity in HEKB2 cells. A, HEKB2 cells overexpressing HSP20 or HSP20 ser16-Ala mutant were treated with isoprenaline for indicated times. Cellular lysates were blotted for HSP20 and Phospho-Ser16 HSP20. B, HEKB2 cells overexpressing HSP20 were treated with isoprenaline for indicated times, Cellular lysates were blotted for HSP20 and Phospho-Ser16 HSP20. C, HEKB2 cells overexpressing HSP20 were treated with isoprenaline for indicated times following pre-treatment with the PDE4-specific inhibitor, rolipram. Cellular lysates were blotted for HSP20 and Phospho-Ser16 HSP20. D, Quantifications of data from FIGS. 1B and 1C (n=4). * Denotes significance at a level p<0.05 E, Lysate from untransfected HEKB2 cells was blotted for HSP20 and Phospho-Ser16 HSP20.
(§1) HEK293B2 cells are a stable cell line overexpressing the GFP-tagged β2AR were cultured as previously described^48. HEK293B2 cells were transiently transfected with wild type HSP20 or a phosphorylation defective HSP20 (S16A) or a phosphorylation mimic HSP20 (S16D). Neonatal cardiac myocytes were prepared and cultured as previously described^30. Cell lysis, immunopurification and western blotting was done as described before by us in some detail^48. Briefly, HEK 293 cells were transiently transfected with wild-type HSP20 by using Polyfect Transfection Reagent (Qiagen). Transfected HEK 293 cells were treated with 10 μM bs906 or 10 μM control peptide for 0, 15, 30, 60 and 120 min. Control and treated transfected HEK 293 cells were then washed thrice with ice cold PBS (phosphate buffered saline) before cellular lysates were prepared. Cellular lysates were prepared in lysis buffer containing 25 mM Hepes, pH 7.5, 2.5 mM EDTA, 50 mM NaCl, 50 mM NaF, […], 10% (v/v) glycerol, 1% (v/v) Triton X-100 and Complete™ EDTA-free protease inhibitor cocktail tablets (Roche). Protein concentration of lysates were determined using the Bradford assay and all samples were equalised for protein concentration. Proteins were separated by SOS/PAGE (4-12% Bis-Tris gels) and transferred onto nitrocellulose membranes for Western blotting. Antibodies were used to detect phospho-proteins and native proteins in lysates from control and treated cells
In contrast to this, when we transfected these cells with a phospho-null mutant form, Ser16Ala-Hsp20, then no such change was observed (FIG. 1A). In order to evaluate whether PDE4 activity played a role in regulating this phosphorylation process in Hsp20-transfected HEKB2 cells, cells that had either been pre-treated or not with the PDE4 selective inhibitor rolipram were subsequently challenged with isoprenaline (1 μM) (FIGS. 1B and C). […] Endogenous levels of phospho-HSP20 or HSP20 were not detectable in HEKB2 cells (FIG. 1E).
`CCCCCCOC(=O)[C@]1(O)C[C@@H]2O[C@@]1(C)n1c3ccccc3c3c4c(c5c6ccccc6n2c5c31)C(=O)NC4` [KT5720]: the “HSP20 phosphorylation after PKA inhibitor pre-treatment” value is “markedly attenuated HSP20 phosphorylation”.

With `O=S(=O)(NCCNC/C=C/c1ccc(Br)cc1)c1cccc2cnccc12` [Peptide H89, H89], the “HSP20 phosphorylation after PKA inhibitor pre-treatment” value is reported as “markedly attenuated HSP20 phosphorylation”.

In another test the target is T1, His-HSP20 (purified recombinant …). The experiment in a line: SPOT peptide array overlaid with purified His-Hsp20.
Conditions: not given
The method, then: A variety of peptides were generated and SPOT-synthesised onto slides which were then overlaid with 10 μg/ml of purified His-Hsp20. Interaction with peptides and Hsp20 was evaluated by probing slides with anti-His or Hsp20 antibodies and analysed using enhanced chemi-luminescence techniques, Negative controls used anti-His antibody only with no overlay of His-Hsp20 protein (data not shown).
Take B5: the binding result was “binds”.

On to B6, for which the binding result is “binds”.

As for B7, the binding result is “binds”.

As for B8, the binding result is “binds”.

In the case of B9, the binding result was “no binding (tested: 10 ug/ml His-Hsp20 overlay)”.

Regarding B10, the binding result is given as “binds”.

In the case of B11, the binding result was “binds”.

Take B12: the binding result is “binds”.

Regarding B13, the binding result is “binds”.

Consider B14, for which the binding result is “no binding (tested: 10 ug/ml His-Hsp20 overlay)”.

The test system of another test is pS16-Hsp20 in SH-SY5Y cells. The experiment in a line: Cell based Hsp20-PDE4D disruptor assay, nucleofected SH-SY5Y cells, pS16-Hsp20 Western blot. Particulars: SH-SY5Y cells nucleofected with 500 μM peptide, 2 hours. More on the design: species or system human. The protocol: FIG. 9. Disrupter induced HSP20 phosphorylation SH-SY5Y cells nucleofected with 500 μM of each peptide and incubated for 2 hours prior to harvesting. Each assay was blotted for Hsp20, pS16-Hsp20 and tubulin. Changes in levels of phospho-Hsp20 relative to DMSO only controls were quantified through densitometry analysis and each assay was normalised to α-tubulin loading control. The results are the average of three separate experiments and error bars represent SEM. *=p<0.05, **=p<0.01 compared to DMSO only controls (Student-T-test)
SDS-PAGE analysis was done on NuPage® pre-cast gels X-cell apparatus (Invitrogen, Paisley) using MES-SDS running buffer, Samples were reduced in Laemmli 2× loading buffer (4% SOS) with 5% β-mercaptoethanol. For Western Blotting (WB) analysis, samples were transferred using NuPage® X-cell blotting module onto a nitrocellulose membrane. Membranes were blocked using 5% Milk in 1×TBST (w/v). Antibodies were incubated in 1% milk in 1×TBST (w/v) for either 1 hour at room temperature or overnight at 4° C. Signals were detected using enhanced chemiluminescence system (Pierce) and developed on an X-omat film developer. Subsequent densitometry analysis was carried out using Quantity One (Bio-Rad).
SH-SY5Y cells (ATCC-CRL-2266) were grown in Dulbecco's Modified Eagle's Medium (DMEM) and F12-Ham's at a 1:1 ratio, media was supplemented with 10% (v/v) fetal bovine serum (FBS), 1% (v/v) L-Glutamine, 1% (v/v) Minimum Essential Medium—With Non-essential Amino Acids (MEM-NAA) and 1% (v/v) Pen/strep. Cells were cultured in a humidified, 5% (v/v) CO2, 37° C. incubator.
SH-SY5Y cells were nucleofected using Cell Line Nucleofector® Kit-V in accordance with manufacturers protocol (Amaxa Biosystems). Setting A-23 on the Nucleofector I device was used which increases cell viability. For each assay, 500 μM of disrupter peptide was incubated with 100 μl of nucleofection solution containing approximately 2×10^6 cells. After nucleofection cells were re-suspended in 500 μl of culture media before being transferred to a 6 well plate with a final volume of 2 ml per well. Cells were incubated for 2 hours prior to harvesting with […] containing protease and phosphatase inhibitors (Roche).
As the cell permeability of the peptides is unknown we used an electroporation technique to introduce the peptides into the SH-SY5Y cells. The Amaxa cell-line specific Nucleofector Kit V (Lonza) was used to transfect the peptides into the cells. […] Each assay used a final concentration of 500 μM of peptide in nucleofector solution containing approximately 2×10^6 SH-SY5Y cells. As peptides were dissolved in 100% DMSO, control transfections with DMSO only were used to compare any changes in phospho-Hsp20 levels. After each transfection the solution was reconstituted in culture media and incubated for 2 hours to allow for cell adhesion prior to the harvesting of viable cells.
For Ac-FKLLQ-NH2 [Peptide 9], the “pS16-Hsp20 levels relative to DMSO only controls” value is listed as “indistinguishable from DMSO only controls”.

For the molecule Ac-FQNLTK-NH2 [Peptide 6], the “pS16-Hsp20 levels relative to DMSO only controls” value is “significant increase in pS16-Hsp20 levels”.

Take Ac-GFALL-NH2 [Peptide 16]: the “pS16-Hsp20 levels relative to DMSO only controls” value is “average value similar to the DMSO only controls”.

Regarding Ac-GFKLL-NH2 [Peptide 11], the “pS16-Hsp20 levels relative to DMSO only controls” value is listed as “indistinguishable from DMSO only controls”.

With Ac-GFRLL-NH2 [Peptide 12], the “pS16-Hsp20 levels relative to DMSO only controls” value was “induced an average increase when compared with DMSO only controls”.

In the case of Ac-KFKLL-NH2 [Peptide 13], the “pS16-Hsp20 levels relative to DMSO only controls” value is “induced an average increase when compared with DMSO only controls”.

As for “Ac-LTK-NH2 (Ac-Leu-Thr-Lys-NH2) [Peptide 7]”, the “pS16-Hsp20 levels relative to DMSO only controls” value was “significant increase in pS16-Hsp20 levels”.

Take Ac-YQNLTK-NH2 [Peptide 3]: the “pS16-Hsp20 levels relative to DMSO only controls” value is “no effect on phosphorylation levels”.

The next test concerns Phospho-Ser16 HSP20 in neonatal cardiac myocytes. The experiment in a line: Ser16 phosphorylation of endogenous HSP20 in neonatal cardiac myocytes (Western blot). Particulars: cardiomyocytes, stimulated with isoproterenol alone or with PKA inhibitor pre-treatment; data not shown. It counts as cell-based, rat. The method, then: FIG. 2. The phosphorylation of HSP20 at Ser16 is modulated by PDE4 activity in cardiac myocytes. A, Neonatal cardiac myocytes were treated with isoprenaline for indicated times with or without pre-treatment with the PDE4-specific inhibitor, rolipram. Cellular lysates were blotted for HSP20 and Phospho-Ser16 HSP20. B, Quantifications of data from FIG. 2A (n=3). * Denotes significance at a level p<0.05 over iso treatment.
as §1
To determine whether inhibition of PDE4 activity had similar effects on endogenous phospho-HSP20 levels in heart cells, similar experiments were undertaken using neonatal cardiomyocytes (FIG. 2).
(In western blotting, separated proteins are transferred to a membrane and probed.)
Regarding `CCCCCCOC(=O)[C@]1(O)C[C@@H]2O[C@@]1(C)n1c3ccccc3c3c4c(c5c6ccccc6n2c5c31)C(=O)NC4` [KT5720], the “HSP20 phosphorylation after PKA inhibitor pre-treatment” value is “markedly attenuated HSP20 phosphorylation”.

For `O=S(=O)(NCCNC/C=C/c1ccc(Br)cc1)c1cccc2cnccc12` [Peptide H89, H89], the “HSP20 phosphorylation after PKA inhibitor pre-treatment” value is given as “markedly attenuated HSP20 phosphorylation”.

For the origin of these results see US20130209439A1, “INHIBITORS OF PDE4 BINDING TO HSP20” (THE UNIVERSITY COURT OF THE UNIVERSITY OF GLASGOW, priority 2010, published 2013).
